Numbered stars: 1 amine (or outer) side, 2 acyl side, 3 side chain; on linkers, the order of the positions; unused ones are H or OH. Square brackets hold non-standard residues; d marks the D form. Side chains are listed from the residue outwards. 4‑DMNA = 4-N,N-dimethylamino-1,8-naphthalimido-alanine, CN(C)c1ccc2c3c(cccc13)C(=O)N(C[C@H](N[*:1])C(=O)[*:2])C2=O; 4‑DMN = 4-DMN: an environment-sensitive fluorophore; 9‑Å linker = not defined here
B1: 4-DMN sensor 5 (GB1-WASP(230–277)-His6 with the 4-DMNA amino acid at position 271, made by expressed protein ligation) (domain or fragment)
chain: GB1-KKKISKADIGAPSGFKHVSHVGWDPQNGFDVNNLDPDLRCL[4‑DMNA]SRAGIS-His6
B2: 4-DMN sensor 3 (GB1-WASP(230–277)-His6, Phe271Cys, Cys271 labeled with 4-DMN through a 9-Å linker) (domain or fragment, UniProt P42768 230-277, looked up)
chain: GB1-KKKISKADIGAPSGFKHVSHVGWDPQNGFDVNNLDPDLRSLC([9‑Å linker-4‑DMN])SRAGIS-His6
modifications: not fully specified; reading uncertain

Molecular target: Cdc42 (UniProt P60953 1-191)
Sequence (P60953 whole entry): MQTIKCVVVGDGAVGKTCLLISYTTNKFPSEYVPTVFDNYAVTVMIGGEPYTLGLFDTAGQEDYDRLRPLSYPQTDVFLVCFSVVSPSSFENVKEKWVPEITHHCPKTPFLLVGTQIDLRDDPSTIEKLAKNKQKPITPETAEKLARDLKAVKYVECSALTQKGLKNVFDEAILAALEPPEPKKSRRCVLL
Assay: other fluorescence titration

Row | Binder | Kd
1 | B1 | 0.385 ± 0.009 µM
2 | B2 | 0.341 ± 0.022 µM

From publication PMC3156282 (Bioorganic & medicinal chemistry letters, 2011)
